Several values for one entry are separate records, joined by “and”; a condition that tells them apart may be missing. Identical values can stand only once.
Key:
[1] = molecular target: T1, huFcRn (human, UniProt P55899 24-297; P61769 21-119); assay: SPR Biacore T200, huFcRn on biotin CAPture, pH 5.9, mean of two; pH 5.9
T1 construct: also called human FcRn
Description: (§1) The interaction of the antibodies with human Fc receptors was analysed by SPR using a Biacore™ T200 instrument in the following test conditions: [0242] Immobilization of anti-His antibodies on a CM5 sensor chip via amine coupling for seven Fcγ receptors: huFcγRI, huFcγRIIa_H131, huFcγRIIa_R131, huFcγRIIb/c, huFcγRIIIa_V158, huFcγRIIIa_F158, huFcγRIIIb, or use of biotin CAPture for the huFcRn analysis [0243] Capture of each of the Fc receptors [0244] Affinity constant determination by single cycle kinetics (SCK) at concentrations ranging from 0.6 nM to 2000 nM [0245] Interaction with huFcRn was studied at pH5.9 and pH7.4

[2] = molecular target: T2, human GPRC5D (full length, on cells) (human, UniProt Q9NZD1 1-345); assay: FACS on MM.1R cells (GPRC5D-positive), serial antibody dilution, goat anti-human IgG A488 secondary antibody, median fluorescence intensity
T2 construct: also called huGPRC5D; hGPRC5D
T2 sequence (Q9NZD1 whole entry): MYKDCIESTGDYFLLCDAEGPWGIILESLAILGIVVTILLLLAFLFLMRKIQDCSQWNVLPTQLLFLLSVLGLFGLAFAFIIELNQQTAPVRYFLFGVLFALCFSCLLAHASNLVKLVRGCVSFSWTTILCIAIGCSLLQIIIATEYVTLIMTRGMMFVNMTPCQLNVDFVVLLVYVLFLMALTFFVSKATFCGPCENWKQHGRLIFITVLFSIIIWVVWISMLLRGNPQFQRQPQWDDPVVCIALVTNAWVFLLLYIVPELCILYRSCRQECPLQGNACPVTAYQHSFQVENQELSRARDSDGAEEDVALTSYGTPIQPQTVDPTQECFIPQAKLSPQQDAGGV
Description: (§2) FACS analyses were performed to determine the ability of the ADCC-enhanced antibodies to bind to cells that express GPRC5D on their surface.
(§3) Analyses were performed with Forecyt® Software. Cells were first gated in FSC (forward scatter)/SSC (side scatter). From the resulting cell population, single live cells were gated. Binding was analyzed as median fluorescence intensity (MFI) of the secondary antibody. Curves and apparent KD (“AppKD”) calculations were generated using GraphPad Prism Software (FIG. 2).

[3] = molecular target: T2, human GPRC5D (full length, on cells); assay: cell-based or functional assay
[4] = molecular target: T1, huFcRn; assay: SPR Biacore T200, huFcRn on biotin CAPture, pH 5.9, mean of two; pH 5.9; fold change vs BM1 IgG1 wt
[5] = molecular target: T2, human GPRC5D (full length, on cells); assay: cell-based or functional assay; remark: listed apart in the source
[6] = molecular target: T2, human GPRC5D (full length, on cells); assay: flow cytometry on MM.1R cells, apparent KD, mean
Description: as §2, §3

[7] = molecular target: T2, human GPRC5D (full length, on cells); assay: cell-based or functional assay; remark: listed apart in the source
[8] = molecular target: T3, huFcγRIIa_R167 (human, UniProt P12318 36-218, limits assumed); assay: SPR Biacore T200, receptor captured by anti-His, single cycle kinetics
T3 construct: also called huFcγRIIA R167 polymorph
T3 sequence (looked up): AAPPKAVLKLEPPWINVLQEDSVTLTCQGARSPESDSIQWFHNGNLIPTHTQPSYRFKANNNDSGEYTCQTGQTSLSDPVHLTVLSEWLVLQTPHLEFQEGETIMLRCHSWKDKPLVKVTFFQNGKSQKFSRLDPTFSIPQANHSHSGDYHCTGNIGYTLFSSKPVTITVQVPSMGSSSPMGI

[9] = molecular target: T2, human GPRC5D (full length, on cells); assay: flow cytometry on MM.1R cells, apparent KD, N = 3
Description: as §2, §3

[10] = molecular target: T2, human GPRC5D (full length, on cells); assay: flow cytometry on MM.1R cells, apparent KD, N = 1
Description: as §2, §3

[11] = molecular target: T2, human GPRC5D (full length, on cells); assay: flow cytometry on MM.1R cells, apparent KD, N = 2
Description: as §2, §3

[12] = molecular target: T4, human FcγRIIIa V158 expressed on HEK293 T cells (human, UniProt P08637 17-254); assay: flow cytometry on HEK293 T cells expressing human FcγRIIIa V158, against BM2 IgG1 wt
T4 construct: whole, on cells; Cell-surface form, kept apart from the soluble His-captured receptor m11; also called HEK293 T human FcγRIIIa V158; hu FcγRIIIa
T4 sequence (P08637 17-254 F176V): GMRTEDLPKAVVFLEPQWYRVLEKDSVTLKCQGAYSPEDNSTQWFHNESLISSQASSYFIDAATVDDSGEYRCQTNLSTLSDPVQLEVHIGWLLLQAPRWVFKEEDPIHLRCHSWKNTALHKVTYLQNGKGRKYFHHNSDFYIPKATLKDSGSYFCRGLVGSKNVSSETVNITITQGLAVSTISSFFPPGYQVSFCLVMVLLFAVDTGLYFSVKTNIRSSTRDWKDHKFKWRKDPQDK
Description: (§4) The antibodies were tested using FACS for their ability to bind cells that express human or cynomolgus FcγRIIIa on their surface. The cell lines used were recombinant stable HEK293 T cells expressing human FcγRIIIa V158 and cynomolgus FcγRIIIa to assess cynomolgus cross-reactivity.
(§5) For dose-response curves, cells were incubated with a serial dilution of the antibodies (from 0.0001 μg/mL to 100 μg/mL) for 1 h at 4° C.
(§6) Analyses were performed with VenturiOne® Software. Cells were first gated in FSC/SSC. From the resulting cell population, single cells and following viable cells were gated. Binding was analyzed as median fluorescence intensity (MFI) of the secondary antibody.

[13] = molecular target: T5, huFcγRIIa_H167 (human, UniProt P12318 36-218, limits assumed); assay: SPR Biacore T200, receptor captured by anti-His, single cycle kinetics, mean of two
T5 construct: also called huFcγRIIA H167 polymorph
T5 sequence (looked up): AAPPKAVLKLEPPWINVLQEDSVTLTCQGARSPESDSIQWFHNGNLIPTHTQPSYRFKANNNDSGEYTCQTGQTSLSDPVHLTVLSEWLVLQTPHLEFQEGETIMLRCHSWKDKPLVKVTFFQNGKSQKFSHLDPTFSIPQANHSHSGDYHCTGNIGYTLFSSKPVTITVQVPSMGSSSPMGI
Description: as §1

[14] = molecular target: T6, huFcγRIIIb (human, UniProt O75015 17-200); assay: as above
T6 construct: also called human FcγRIIIb
T6 sequence (O75015 17-200 limits assumed): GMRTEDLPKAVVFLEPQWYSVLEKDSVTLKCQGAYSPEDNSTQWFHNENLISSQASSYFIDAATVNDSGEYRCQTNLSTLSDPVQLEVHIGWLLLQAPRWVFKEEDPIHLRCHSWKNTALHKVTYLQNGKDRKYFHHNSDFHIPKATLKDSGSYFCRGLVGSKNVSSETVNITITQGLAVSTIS
Description: as §1

[15] = molecular target: T7, huFcγRI (human, UniProt P12314 16-288); assay: as above
T7 construct: also called human FcγRI
T7 sequence (P12314 16-288 limits assumed): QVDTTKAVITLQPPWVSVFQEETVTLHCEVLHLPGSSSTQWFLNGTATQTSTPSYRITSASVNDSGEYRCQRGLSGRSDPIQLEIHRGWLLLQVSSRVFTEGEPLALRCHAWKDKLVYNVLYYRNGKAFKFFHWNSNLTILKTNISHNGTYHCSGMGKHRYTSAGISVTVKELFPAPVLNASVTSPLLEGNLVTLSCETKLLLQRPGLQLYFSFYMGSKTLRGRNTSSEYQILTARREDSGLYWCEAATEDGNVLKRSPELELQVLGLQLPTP
Description: as §1

[16] = molecular target: T3, huFcγRIIa_R167; assay: as above
Description: as §1

[17] = molecular target: T8, huFcγRIIIa_V158 (human, UniProt P08637 17-208); assay: as above
T8 construct: Recombinant receptor captured on the SPR chip through anti-His antibodies; V at position 158 (mature numbering, as the name says); also called human FcγRIIIa V158 polymorph; CD16a
T8 sequence (P08637 17-208 F176V limits assumed): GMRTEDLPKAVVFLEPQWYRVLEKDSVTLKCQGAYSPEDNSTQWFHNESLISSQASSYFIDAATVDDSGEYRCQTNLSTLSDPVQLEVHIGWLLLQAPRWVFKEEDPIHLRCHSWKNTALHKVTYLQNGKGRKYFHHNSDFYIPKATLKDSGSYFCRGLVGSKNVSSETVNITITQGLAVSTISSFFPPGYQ
Description: as §1

[18] = molecular target: T9, huFcγRIIIa_F158 (human, UniProt P08637 17-208); assay: as above
T9 construct: Recombinant receptor captured on the SPR chip through anti-His antibodies; also called human FcγRIIIa F158 polymorph; CD16a
T9 sequence (P08637 17-208 limits assumed): as the sequence (P08637 17-208 F176V limits assumed) above, with V160F counted along it
Description: as §1

[19] = molecular target: T10, cynomolgus FcγRIIIa expressed on HEK293 T cells (cynomolgus, UniProt Q8SPW2 17-254); assay: flow cytometry on HEK293 T cells expressing cyno FcγRIIIa, apparent KD, mean of three
T10 construct: whole, on cells; also called cyno FcγRIIIa; cy FcγRIIIa
T10 sequence (Q8SPW2 17-254): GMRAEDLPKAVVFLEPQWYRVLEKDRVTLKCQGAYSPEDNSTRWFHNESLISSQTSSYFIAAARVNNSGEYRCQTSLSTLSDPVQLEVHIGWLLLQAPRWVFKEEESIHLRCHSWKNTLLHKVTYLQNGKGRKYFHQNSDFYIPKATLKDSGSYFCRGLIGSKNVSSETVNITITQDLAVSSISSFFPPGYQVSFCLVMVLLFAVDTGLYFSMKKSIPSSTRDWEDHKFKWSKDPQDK
Description: as §4, §5
(§7) The apparent KD was determined for each molecule by drawing an appropriate non-linear regression curve using the one site-specific binding four parameters model with GraphPad Prism Software (FIG. 1).

[20] = molecular target: T2, human GPRC5D (full length, on cells); assay: cell-based or functional assay; remark: listed apart in the source
[21] = molecular target: T2, human GPRC5D (full length, on cells); assay: cell-based or functional assay; remark: listed apart in the source
[22] = molecular target: T4, human FcγRIIIa V158 expressed on HEK293 …; assay: flow cytometry on HEK293 T cells expressing human FcγRIIIa V158, apparent KD, mean of three
Description: as §4, §5, §7

[23] = molecular target: T10, cynomolgus FcγRIIIa expressed on HEK293 …; assay: flow cytometry on HEK293 T cells expressing cyno FcγRIIIa, against BM2 IgG1 wt
Description: as §4, §5, §6

T1 sequence (P55899 24-297 limits assumed, chain 1 of 2): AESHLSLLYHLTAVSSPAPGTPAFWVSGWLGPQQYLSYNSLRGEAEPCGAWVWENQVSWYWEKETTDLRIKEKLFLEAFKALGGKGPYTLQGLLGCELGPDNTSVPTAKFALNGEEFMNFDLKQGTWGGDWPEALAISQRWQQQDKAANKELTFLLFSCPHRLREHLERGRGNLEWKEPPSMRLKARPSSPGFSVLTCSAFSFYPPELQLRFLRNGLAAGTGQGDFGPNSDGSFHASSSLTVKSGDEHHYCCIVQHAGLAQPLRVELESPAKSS
T1 sequence (P61769 21-119 limits assumed, chain 2 of 2): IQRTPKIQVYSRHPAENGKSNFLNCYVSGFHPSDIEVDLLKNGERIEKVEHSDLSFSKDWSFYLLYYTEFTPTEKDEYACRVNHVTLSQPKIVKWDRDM

B1: clone 11 in DE-DSB format (anti-GPRC5D IgG1 with S239D/I332E/R292C/V302C Fc mutations) (antibody)
heavy: EVQLVESGGGLVQPGGSLRLSCAASGFTVSSNYMSWVRQAPGKGLEWVSVIYSGGSTYYADSVKGRFTISRDNSKNTLYLQMNSLRAEDTAVYYCARGFLAFGRYYYGMDVWGQGTTVTVSSASTKGPSVFPLAPSSKSTSGGTAALGCLVKDYFPEPVTVSWNSGALTSGVHTFPAVLQSSGLYSLSSVVTVPSSSLGTQTYICNVNHKPSNTKVDKKVEPKSCDKTHTCPPCPAPELLGGPDVFLFPPKPKDTLMISRTPEVTCVVVDVSHEDPEVKFNWYVDGVEVHNAKTKPCEEQYNSTYRCVSVLTVLHQDWLNGKEYKCKVSNKALPAPEEKTISKAKGQPREPQVYTLPPSRDELTKNQVSLTCLVKGFYPSDIAVEWESNGQPENNYKTTPPVLDSDGSFFLYSKLTVDKSRWQQGNVFSCSVMHEALHNHYTQKSLSLSPG
light: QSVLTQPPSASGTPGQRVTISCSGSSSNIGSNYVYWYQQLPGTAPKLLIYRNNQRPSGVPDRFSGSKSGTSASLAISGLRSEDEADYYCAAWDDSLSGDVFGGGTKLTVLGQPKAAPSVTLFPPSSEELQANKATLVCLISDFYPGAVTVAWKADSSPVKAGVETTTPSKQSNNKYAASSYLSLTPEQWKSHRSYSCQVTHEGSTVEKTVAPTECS
notes: human IgG1, lambda light chain; also called 11-DE-DSB; 11 DE-DSB
[1]
  Kd: 982 nM
[2]
  EC50 (read off the curve): ~0.02 nM
[3]
  EC50 geometric mean, ADCP by macrophages against MM.1R cells (n = 5): 248 pM
  EC50rel, ADCP by macrophages against MM.1R cells, Donor1: 297 pM
  EC50rel, ADCP by macrophages against MM.1R cells, Donor3: 303 pM
  EC50rel, ADCP by macrophages against MM.1R cells, Donor4: 517 pM
  EC50rel, ADCP by macrophages against MM.1R cells, Donor5: 52.8 pM
[4]
  Fold change vs BM1 IgG1 wt: 1 fold
[5]
  relEC50 median, ADCC over four days (Incucyte) against MM.1R cells with NK cells: 0.87 ng/ml and 6 pM
[6]
  Kd: 0.024 nM
[7]
  EC50rel geometric mean, ADCP by macrophages against MM.1R cells (n = 5): 35.9 ng/mL
[8]
  binding result: no binding (tested: 0.6 nM to 2000 nM)
[9]
  Kd: 0.019 nM
[10]
  Kd: 0.036 nM
[11]
  Kd: 0.018 nM
[12]
  Fold change vs IgG1 wt: 28 fold
[13]
  Fold change vs BM1 IgG1 wt: 1 fold
  Kd: 2580 nM
  NormB: 15
[14]
  Fold change vs BM1 IgG1 wt: 34 fold
  Kd: 52.9 nM
[15]
  Fold change vs BM1 IgG1 wt: 2 fold
  Kd: 0.499 nM
[16]
  NormB: 2
[17]
  Fold change vs BM1 IgG1 wt: 4 fold
  Kd: 12.2 nM
  NormB: 38
[18]
  Fold change vs BM1 IgG1 wt: 10 fold
  Kd: 22.7 nM
  NormB: 45
[19]
  Kd: 1.4 nM
[20]
  relEC50 Median, ADCC (calcein release) against MM.1R cells with NK cells: 6 ng/ml and 40.1 pM
[21]
  relEC50 Median, ADCC (calcein release) against EJM cells with NK cells: 259 pM and 37.5 ng/ml
[22]
  Kd: 1.22 nM
[23]
  Fold change vs IgG1 wt: 26 fold

— patent publication US20250230234A1 (Sanofi, published 2025)
